Earlier results in patent US20090011987A1, “Use of Glp-2 for the Treatment of Ischemia-Reperfusion Injury” (Novo Nordisk A/S, priority 2005, published 2009).

Conditions: adult human plasma

**Q.** For “GLP-2(1-33) [wild type human GLP-2(1-33)]”, which half-life is on record?
**A.** lower than 2 hours
